Test results from US20220281949A1 (UNIVERSITY HEALTH NETWORK, published 2022).

Target: T1, soluble CD4 (sCD4): human CD4 extracellular domain fused with a 6×His tag via a GS linker (human, UniProt P01730 26-396)
T1 construct: Produced in HEK293T supernatant; for staining the monomer was dimerized with a PE-labeled anti-6×His mAb (AD1.1.10); also called dimerized sCD4
Assay: flow cytometry: K562 cells expressing the class II molecule stained with sCD4 dimerized by PE anti-His mAb

- binding result: no binding
B1: wild-type DR1 (DRA1*01:01/DRB1*01:01) on K562 cells (peptide-MHC, human)
MHC II alpha: not shown
MHC II beta: not shown
notes: whole, on cells; Stably transduced in class II-deficient K562 cells
